Assay results from patent publication US20140255408A1 (Janssen / Centocor, published 2014).

Experiments:
[1] = molecular target: T1, human c-Met on cells (human, UniProt P08581 25-1390); experiment: cell-based or functional assay
[2] = molecular target: T2, Recombinant human c-Met Fc chimera (human, UniProt P08581 16-932); experiment: HGF competition assay on coated c-Met-Fc, competitor biotinylated HGF
T2 construct: not shown: Fc part

[3] = molecular target: T2, Recombinant human c-Met Fc chimera; experiment: SPR (ProteOn), c-Met-Fc captured on anti-human Fc IgG, FN3 domain as analyte
[4] = molecular target: T1, human c-Met on cells; experiment: H441 cell binding assay, anti-His detection
Experimental: Purified FN3 domains (50 μL/well; 0 to 1000 nM) were added to the cells for 1 hour at 4° C. in duplicate plates. […] Cells were incubated with biotinylated-anti HIS antibody (diluted 1:160 in FACS stain buffer, 50 μL/well, R&D Systems, cat #BAM050) for 30 minutes at 4° C. […] Cells were washed three times with FACS stain buffer (150 μL/well) and left in FACS stain buffer (50 μL/well).

[5] = molecular target: T3, human EGFR on cells (human, UniProt P00533 25-1210); experiment: cell-based or functional assay
[6] = molecular target: T3, human EGFR on cells; experiment: cell-based or functional assay; remark: listed apart in the source
[7] = molecular target: T4, recombinant human extracellular domain of EGFR fused to an IgG1 Fc (human, UniProt P00533 25-645); experiment: SPR (ProteOn), protocol of Example 3, recombinant EGFR extracellular domain
T4 construct: Bought from R&D Systems; The residues are stated for the panning reagent; also called EGFR-Fc; EGF R-Fc; not shown: IgG1 Fc
Experimental: All 6 analyte channels were used for the FN3 domains to maximize screening throughput. The dissociation phase was monitored for 10 minutes at a flow rate of 100 μL/min. The inter-spot binding signals were used as references to monitor non-specific binding between analytes and the immobilized IgG surface, and were subtracted from all binding responses. The processed binding data were locally fit to a 1:1 simple Langmuir binding model to extract the koff for each FN3 domain binding to captured EGFR-Fc.
Binding affinity of selected EGFR-binding FN3 domains to recombinant EGFR extracellular domain was further characterized by surface Plasmon resonance methods using a Proteon Instrument (BioRad). The assay set-up (chip preparation, EGFR-Fc capture) was similar to that described above for off-rate analysis. Selected EGFR binding FN3 domains were tested at 1 μM concentration in 3-fold dilution series in the horizontal orientation. A buffer sample was also injected to monitor the baseline stability. […] Two sets of reference data were subtracted from the response data: 1) the inter-spot signals to correct for the non-specific interactions between the EGFR-binding FN3 domain and the immobilized IgG surface; 2) the buffer channel signals to correct for baseline drifting due to the dissociation of captured EGFR-Fc surface over time. The processed binding data at all concentrations for each FN3 domain were globally fit to a 1:1 simple Langmuir binding model to extract estimates of the kinetic (kₘ, koff) and affinity (KD) constants.

[8] = molecular target: T2, Recombinant human c-Met Fc chimera; experiment: SPR (ProteOn), protocol of Example 3, recombinant c-Met extracellular domain

B1: P114AR7P95-D3 (designed binder, not shown: small tags and cut ends)
chain: LPAPKNLVVSRVTEDSARLSWTAPDAAFDSFWIRYFEFLGSGEAIVLTVPGSERSYDLTGLKPGTEYVVNIMGVKGGSISYPLSAIFTT
- pMet inhibition in H441 cells (IC50) [1]: 4.6 nM
- IC50 [2]: 0.2 nM
- Kd [3]: 0.3 nM

B2: P114AR5P75-E9 (designed binder, not shown: small tags and cut ends)
chain: LPAPKNLVVSRVTEDSARLSWTAPDAAFDSFFIRYDEFLRSGEAIVLTVPGSERSYDLTGLKPGTEYWVTILGVKGGLVSTPLSAIFTT
- Inhibition of Proliferation of U87-MG cells (IC50) [1]: 1190 nM
- pMet inhibition in H441 cells (IC50) [1]: 1.42 µM
- IC50 [2]: 51.9 nM
- Kd [3]: 45.8 nM

B3: P114AR7P95-G7 (designed binder, not shown: small tags and cut ends)
chain: LPAPKNLVVSRVTEDSARLSWTAPDAAFDSFWIRYFELLSTGEAIVLTVPGSERSYDLTGLKPGTEYVVNIMGVKGGSISPPLSAIFTT
- Inhibition of Proliferation of U87-MG cells (IC50) [1]: 692 nM
- pMet inhibition in H441 cells (IC50) [1]: 659 nM
- EC50 [4]: 11.3 nM
- Kd [3]: 20 nM

B4: P114AR7P95-D4 (designed binder, not shown: small tags and cut ends)
chain: LPAPKNLVVSRVTEDSARLSWTAPDAAFDSFWIRYFEFLGSGEAIVLTVPGSERSYDLTGLKPGTEYVVQILGVKGGYISIPLSAIFTT
- Inhibition of Proliferation of U87-MG cells (IC50) [1]: 19.4 nM
- pMet inhibition in H441 cells (IC50) [1]: 19.5 nM
- EC50 [4]: 1.4 nM
- Kd [3]: 0.4 nM

B5: P114AR7P92-G8 (designed binder, not shown: small tags and cut ends)
chain: LPAPKNLVVSRVTEDSARLSWTAPDAAFDSFVIRYFEFLGSGEAIVLTVPGSERSYDLTGLKPGTEYVVQILGVKGGYISIPLSAIFTT
- Inhibition of Proliferation of U87-MG cells (IC50) [1]: 124 nM
- pMet inhibition in H441 cells (IC50) [1]: 155 nM
- EC50 [4]: 5.9 nM
- IC50 [2]: 1.6 nM
- Kd [3]: 1 nM

B6: P114AR7P94-E5 (designed binder, not shown: small tags and cut ends)
chain: LPAPKNLVVSRVTEDSARLSWTAPDAAFDSFWIRYFEFLGSGEAIVLTVPGSERSYDLTGLKPGTEYAVNIMGVKGGRVSVPLSAIFTT
- Inhibition of Proliferation of U87-MG cells (IC50) [1]: 196 nM
- pMet inhibition in H441 cells (IC50) [1]: 124 nM
- EC50 [4]: 3.4 nM
- IC50 [2]: 0.7 nM
- Kd [3]: 4.2 nM

B7: P114AR7P95-E3 (designed binder, not shown: small tags and cut ends)
chain: LPAPKNLVVSRVTEDSARLSWTAPDAAFDSFWIRYFEFLGSGEAIVLTVPGSERSYDLTGLKPGTEYVVQIMGVKGGTVSPPLSAIFTT
- Inhibition of Proliferation of U87-MG cells (IC50) [1]: 209 nM
- pMet inhibition in H441 cells (IC50) [1]: 205 nM
- EC50 [4]: 3.2 nM

B8: P114AR7P92-F3 (designed binder, not shown: small tags and cut ends)
chain: LPAPKNLVVSRVTEDSARLSWTAPDAAFDSFWIRYFEFLGSGEAIVLTVPGSERSYDLTGLKPGTEYIVNIMGVKGGSISHPLSAIFTT
- Inhibition of Proliferation of U87-MG cells (IC50) [1]: 2.7 nM
- pMet inhibition in H441 cells (IC50) [1]: 8.3 nM
- IC50 [2]: 0.2 nM
- Kd [3]: 0.4 nM

B9: P114AR7P95-F10 (designed binder, not shown: small tags and cut ends)
chain: LPAPKNLVVSRVTEDSARLSWTAPDAAFDSFWIRYFEFTTAGEAIVLTVPGSERSYDLTGLKPGTEYVVNIMGVKGGSISPPLSAIFTT
- Inhibition of Proliferation of U87-MG cells (IC50) [1]: 130 nM
- pMet inhibition in H441 cells (IC50) [1]: 188 nM
- EC50 [4]: 4.4 nM
- IC50 [2]: 1.4 nM
- Kd [3]: 4.2 nM

B10: P114AR7P93-H9 (designed binder, not shown: small tags and cut ends)
chain: LPAPKNLVVSRVTEDSARLSWTAPDAAFDSFWIRYFEFLGSGEAIVLTVPGSERSYDLTGLKPGTEYVVQIIGVKGGHISLPLSAIFTT
- Inhibition of Proliferation of U87-MG cells (IC50) [1]: 270 nM
- pMet inhibition in H441 cells (IC50) [1]: 288 nM
- EC50 [4]: 12.9 nM
- IC50 [2]: 2.9 nM
- Kd [3]: 3.3 nM

B11: P114AR7P92-H5 (designed binder, not shown: small tags and cut ends)
chain: LPAPKNLVVSRVTEDSARLSWTAPDAAFDSFWIRYLEFLLGGEAIVLTVPGSERSYDLTGLKPGTEYVVQIMGVKGGTVSPPLSAIFTT
- Inhibition of Proliferation of U87-MG cells (IC50) [1]: 672 nM
- pMet inhibition in H441 cells (IC50) [1]: 766 nM
- EC50 [4]: 22 nM
- Kd [3]: 11.6 nM

B12: P114AR7P94-A3 (designed binder, not shown: small tags and cut ends)
chain: LPAPKNLVVSRVTEDSARLSWTAPDAAFDSFWIRYFEFLGSGEAIVLTVPGSERSYDLTGLKPGTEYVVNIMGVKGGKISPPLSAIFTT
- Inhibition of Proliferation of U87-MG cells (IC50) [1]: 9.3 nM
- pMet inhibition in H441 cells (IC50) [1]: 5 nM
- EC50 [4]: 1.4 nM
- IC50 [2]: 0.2 nM
- Kd [3]: 0.4 nM

B13: P114AR7P95-B9 (designed binder, not shown: small tags and cut ends)
chain: LPAPKNLVVSRVTEDSARLSWTAPDAAFDSFWIRYFEFLGSGEAIVLTVPGSERSYDLTGLKPGTEYVVQILGVKGGSISVPLSAIFTT
- Inhibition of Proliferation of U87-MG cells (IC50) [1]: 17.4 nM
- pMet inhibition in H441 cells (IC50) [1]: 9.8 nM
- IC50 [2]: 0.3 nM

B14: P114AR7P93-G8 (designed binder, not shown: small tags and cut ends)
chain: LPAPKNLVVSRVTEDSARLSWTAPDAAFDSFWIRYFEFLGSGEAIVLTVPGSERSYDLTDLKPGTEYGVTINGVKGGRVSTPLSAIFTT
- Inhibition of Proliferation of U87-MG cells (IC50) [1]: 104 nM
- pMet inhibition in H441 cells (IC50) [1]: 460 nM
- EC50 [4]: 3.8 nM
- IC50 [2]: 1 nM
- Kd [3]: 6.9 nM

B15: P114AR7P92-F6 (designed binder, not shown: small tags and cut ends)
chain: LPAPKNLVVSRVTEDSARLSWTAPDAAFDSFWIRYFEFLGSGEAIVLTVPGSERSYDLTGLKPGTEYVVNILGVKGGGLSVPLSAIFTT
- Inhibition of Proliferation of U87-MG cells (IC50) [1]: 350 nM
- pMet inhibition in H441 cells (IC50) [1]: 165 nM
- EC50 [4]: 4.9 nM
- IC50 [2]: 2.2 nM
- Kd [3]: 3.1 nM

B16: P114AR7P95-H8 (designed binder, not shown: small tags and cut ends)
chain: LPAPKNLVVSRVTEDSARLSWTAPDAAFDSFWIRYFEFVSKGEAIVLTVPGSERSYDLTGLKPGTEYVVNIMGVKGGSISPPLSAIFTT
- Inhibition of Proliferation of U87-MG cells (IC50) [1]: 281 nM
- pMet inhibition in H441 cells (IC50) [1]: 210 nM
- EC50 [4]: 4.1 nM
- Kd [3]: 3.7 nM

B17: P114AR7P93-D11 (designed binder, not shown: small tags and cut ends)
chain: LPAPKNLVVSRVTEDSARLSWTAPDAAFDSFWIRYFEFLGSGEAIVLTVPGSERSYDLTGLKPGTEYVVGINGVKGGYISYPLSAIFTT
- Inhibition of Proliferation of U87-MG cells (IC50) [1]: 14.4 nM
- pMet inhibition in H441 cells (IC50) [1]: 16 nM
- EC50 [4]: 2.3 nM

B18: P54AR4-47 (designed binder)
chain: LPAPKNLVVSEVTEDSLRLSWWDPFSFYDSFLIQYQESEKVGEAINLTVPGSERSYDLTGLKPGTEYTVSIYGVHNVYKDTNMRGLPLSAEFTT
- Phospho-EGFR IC50 (A431 cells) [5]: 295 nM

B19: ECB15 (designed binder)
chain: MLPAPKNLVVSEVTEDSARLSWDDPWAFYESFLIQYQESEKVGEAIVLTVPGSERSYDLTGLKPGTEYTVSIYGVHNVYKDTNMRGLPLSAIFTTAPAPAPAPAPLPAPKNLVVSRVTEDSARLSWTAPDAAFDSFWIRYFEFLGSGEAIVLTVPGSERSYDLTGLKPGTEYVVNIMGVKGGKISPPLSAIFTT
notes: not shown: C-terminal poly-histidine tag
- H292 pEGFR inhibition in H292 cells (IC50) [6]: 4.2 nM
- Kd [7]: 0.2 nM
- Kd [8]: 2.6 nM
